Patent US11840557B2, “Wnt7 variants capable of activating g-protein coupled receptor (Gpr)124/Reck/frizzled/lipoprotein receptor-related protein (LRP)-mediated Wnt signaling” (UNIVERSITÉ LIBRE DE BRUXELLES, priority 2018, dated 2023)
Values belong to the molecule of their own block, whether it stands above or below them. Ends that are not written are not given here.

Tests used:
[1] = system: Reck-CK-Fc; experiment: Isothermal titration calorimetry (ITC) of synthetic Wnt linker peptides into recombinant Reck-CK-Fc; assay type: binding
Method: Reck-CK-Fc fusion proteins were recovered in serum-free FreeStyle 293 Expression Medium (Thermo Fisher Scientific, Waltham, Mass.) from the supernatant of HEK293T cell cultures 72 h post transfection with Lipofectamine 2000 (Life Technologies, Carlsbad, Calif.). After collection, the supernatants were either concentrated 50 times by centrifugation (GE Healthcare, Little Chalfont, UK) or submitted to Protein G affinity purification (Protein G Sepharose 4 Fast Flow, Sigma-Aldrich, St. Louis, Mo.). Protein purity was assessed using Coomassie blue staining after PAGE. Synthetic Wnt linker peptides were obtained from Chinapeptide Co., Ltd at purities over 90%.
ITC titrations were carried out on an Affinity ITC (TA Instruments). Prior to the measurement, Reck-CK-Fc and all Reck-CK-Fc fusions were dialyzed to Tris-NaCl buffer (50 mM Tris pH8, 300 mM NaCl). In each case Wnt-derived peptides were prepared with buffer from the last step of protein dialysis. The samples were filtered and degassed before being examined in the calorimeter and the titrations were performed 25° C. All the experiments consisted of injection of constant volumes of 2 μL of titrant into the cell (200 μL) with a stirring rate of 75 rpm. Nominal sample concentrations were between 20 μM and 40 μM in the cell and 400 μM to 1.0 mM in the syringe. Actual sample concentrations were determined after dialysis or buffer exchange by measurement of their absorption at 280 nm or the BCA method. All data were analyzed using the MicroCal Origin ITC 7.0, and NanoAnalyze software packages.

[2] = target: T1, HA-Reck (Homo sapiens, UniProt O95980); experiment: Proximity ligation assay (PLA), anti-V5/anti-HA, V5-tagged Wnt ligand and HA-Reck in GPR124−/−;RECK−/− cells; assay type: cell-based; conditions: GPR124−/−;RECK−/− cells co-expressing HA-Reck
T1 construct: expressed in transfected cells; host or cells: GPR124-/-;RECK-/- HEK293 (STF) cells, pCS2 / CMV promoter
T1 sequence (O95980 23-942): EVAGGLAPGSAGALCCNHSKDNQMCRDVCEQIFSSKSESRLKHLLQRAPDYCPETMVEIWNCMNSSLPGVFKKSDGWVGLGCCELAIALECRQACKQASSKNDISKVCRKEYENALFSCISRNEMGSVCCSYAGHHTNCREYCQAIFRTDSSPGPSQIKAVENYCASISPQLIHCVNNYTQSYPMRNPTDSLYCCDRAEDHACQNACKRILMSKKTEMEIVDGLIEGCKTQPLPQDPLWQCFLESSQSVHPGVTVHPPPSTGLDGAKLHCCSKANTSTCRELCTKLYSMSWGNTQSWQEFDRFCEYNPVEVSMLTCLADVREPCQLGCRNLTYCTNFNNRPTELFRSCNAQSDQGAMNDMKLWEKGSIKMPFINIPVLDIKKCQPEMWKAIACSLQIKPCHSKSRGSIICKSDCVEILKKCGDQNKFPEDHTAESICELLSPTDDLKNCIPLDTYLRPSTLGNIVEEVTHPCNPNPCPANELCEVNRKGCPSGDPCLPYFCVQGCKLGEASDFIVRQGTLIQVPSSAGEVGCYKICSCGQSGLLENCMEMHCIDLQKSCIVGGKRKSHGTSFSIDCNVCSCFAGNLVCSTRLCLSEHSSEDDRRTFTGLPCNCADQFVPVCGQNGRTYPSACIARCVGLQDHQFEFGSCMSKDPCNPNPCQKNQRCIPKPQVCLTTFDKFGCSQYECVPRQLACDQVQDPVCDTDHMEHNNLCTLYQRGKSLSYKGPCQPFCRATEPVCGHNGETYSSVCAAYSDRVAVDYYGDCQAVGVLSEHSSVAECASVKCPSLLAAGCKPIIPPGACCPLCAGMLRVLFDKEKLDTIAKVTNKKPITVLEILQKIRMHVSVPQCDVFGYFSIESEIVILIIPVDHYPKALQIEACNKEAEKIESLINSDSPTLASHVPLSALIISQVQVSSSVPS
Method: (§1) 1.7. Immunofluorescence and Proximity Ligation Assay Cells were grown in glass-coated chambers (IBIDI, Martinsried, Germany) and transfected after 24 h with Lipofectamine 2000 (Life Technologies, Carlsbad, Calif.). Cells were fixed with 4% paraformaldehyde for 10 min at room temperature (RT) 48 h post transfection. For immunofluorescence staining (IF), cells were blocked in 1% BSA-PBS for 30 min before being exposed to primary antibodies for 1 h at RT. After three PBS washes, cells were incubated with secondary antibodies for 1 h at RT. For anti-V5 staining of Wnt ligands, cells were additionally washes for 10 min in PBS 0.1% Tween 20 before incubation with the secondary antibody solution. For the proximity ligation assay (PLA) (Sigma-Aldrich, St. Louis, Mo.), cells were blocked for 30 min at 37° C. with the Blocking solution provided by the manufacturer before being incubated with the primary antibodies for 1 h at RT. Cells were washed three times and incubated with the PLA probes anti-rabbit PLUS and anti-mouse MINUS for 1 h at 37° C. After two PBS washes, cells were incubated with the Duolink Ligation solution for 30 min at 37° C. After two PBS washes, cells were incubated with the Duolink Amplification solution for 100 min at 37° C. The following antibodies were used: mouse monoclonal anti-V5 (R96025, Life Technologies, Carlsbad, Calif.) at 1:500 for IF and PLA, purified polyclonal rabbit anti-HA (H6908, St. Louis, Mo.) at 1:400 for IF and PLA and anti-mouse Alexa488-conjugated secondary antibody (Thermo Fisher Scientific, Waltham, Mass.) at 1:5000. Cells were stained for 2 min with Hoechst diluted to 10 μg ml-1 in PBS.
Cells and zebrafish embryos were imaged with an LSM710 confocal microscope and images were processed in ImageJ. Images of eye fusion phenotypes were taken on Leica M165 FC. Representations of brain vasculature were generated using Imaris software (BitPlane, Zurich, Switzerland). The percentage of PLA positive (PLA+) areas and DAPI positive (DAPI+) areas were calculated using ImageJ on images containing about 50 to 100 cells. The PLA+ area was measured after manually applying a fixed threshold. The DAPI+ area was measured after applying the “default” thresholding method in Image J.

[3] = system: plasma membrane of HEK293 cells; experiment: Anti-V5 immunostaining of transiently expressed V5-tagged Wnt ligands in non-permeabilized cells; assay type: cell-based, human
Method: as §1, with “After two PBS washes, cells were incubated with the Duolink Amplification solution for 100 min at 37° C. The following antibodies were used: mouse monoclonal anti-V5 (R96025, Life Technologies, Carlsbad, Calif.) at 1:500 for IF and PLA, purified polyclonal rabbit anti-HA (H6908, St. Louis, Mo.) at 1:400 for IF and PLA and anti-mouse Alexa488-conjugated secondary antibody (Thermo Fisher Scientific, Waltham, Mass.) at 1:5000. Cells were stained for 2 min with Hoechst diluted to 10 μg ml-1 in PBS.” left out
It was determined how Wnt7 is specifically recognized within this signaling module, a question inherently complicated by the ubiquitous expression of Frizzled receptors and their Lrp5/6 co-receptors in vertebrate cells. […]

- binding to Reck-CK-Fc (ITC) ([1]; 25° C.): no binding
Molecule: pWnt3a: control equivalent linker peptide of Wnt3a (MVVEKHRESRGWVETLRPRYTYFKVPTER) [reference compound]

- Kd ([1]; 25° C., Tris-NaCl buffer pH8, read-out: affinity of binding to Reck (ITC)): 1200 nM
Molecule: VEVVRASRLRQPTFLRIKQLRSYQKPMET [pWnt7b]
- Reck CK motifs required for binding (ITC with Reck-CK-Fc deletion variants) ([1]; Reck-CK^ΔCK1-Fc to Reck-CK^ΔCK5-Fc): required Reck CK4 and CK5, but not CK1, CK2 and CK3

- Reck binding (anti-V5/anti-HA PLA signal) [2]: did not bind Reck
B1: Wnt7a^1-212: smaller NTD variant lacking the linker region (protein)
chain: LGASIICNKIPGLAPRQRAICQSRPDAIIVIGEGSQMGLDECQFQFRNGRWNCSALGERTVFGKELKVGSREAAFTYAIIAAGVAHAITAACTQGNLSDCGCDKEKQGQYHRDEGWKWGGCSADIRYGIGFAKVFVDAREIKQNARTLMNLHNNEAGRKILEENMKLECKCHGVSGSCTTK
modifications: left off: small tags and cut ends
notes: smaller NTD variant lacking the linker region

B2: Wnt7a-V5: V5-tagged Wnt7a ligand transiently expressed in cells (protein)
chain: LGASIICNKIPGLAPRQRAICQSRPDAIIVIGEGSQMGLDECQFQFRNGRWNCSALGERTVFGKELKVGSREAAFTYAIIAAGVAHAITAACTQGNLSDCGCDKEKQGQYHRDEGWKWGGCSADIRYGIGFAKVFVDAREIKQNARTLMNLHNNEAGRKILEENMKLECKCHGVSGSCTTKTCWTTLPQFRELGYVLKDKYNEAVHVEPVRASRNKRPTFLKIKKPLSYRKPMDTDLVYIEKSPNYCEEDPVTGSVGTQGRACNKTAPQASGCDLMCCGRGYNTHQYARVWQCNCKFHWCCYVKCNTCSERTEMYTCK
modifications: left off: small tags and cut ends
notes: V5-tagged Wnt7a ligand transiently expressed in cells
- immunodetection at the plasma membrane ([3]; GPR124−/−;RECK−/− cells): not at those of GPR124^−/−;RECK^−/− cells
- immunodetection at the plasma membrane ([3]; WT, FZ1-10−/− and LRP5−/−;LRP6−/− cells): could be immunodetected at the plasma membrane

- Reck binding (anti-V5/anti-HA PLA signal) [2]: did not
B3: Wnt7a′: garbled label of a Wnt7a domain variant, probably the C-terminal domain alone (protein)
chain: LGASIICNKIPGLAPRQRAICQSRPDAIIVIGEGSQMGLDECQFQFRNGRWNCSALGERTVFGKELKVGSREAAFTYAIIAAGVAHAITAACTQGNLSDCGCDKEKQGQYHRDEGWKWGGCSADIRYGIGFAKVFVDAREIKQNARTLMNLHNNEAGRKILEENMKLECKCHGVSGSCTTKTCWTTLPQFRELGYVLKDKYNEAVHVEPVRASRNKRPTFLKIKKPLSYRKPMDTDLVYIEKSPNYCEEDPVTGSVGTQGRACNKTAPQASGCDLMCCGRGYNTHQYARVWQCNCKFHWCCYVKCNTCSERTEMYTCK

- Reck binding (anti-V5/anti-HA PLA signal) [2]: bound Reck efficiently
B4: Wnt7a^S206A: mutant Wnt7a incapable of being palmitoylated at Serine 206 (protein)
chain: LGASIICNKIPGLAPRQRAICQSRPDAIIVIGEGSQMGLDECQFQFRNGRWNCSALGERTVFGKELKVGSREAAFTYAIIAAGVAHAITAACTQGNLSDCGCDKEKQGQYHRDEGWKWGGCSADIRYGIGFAKVFVDAREIKQNARTLMNLHNNEAGRKILEENMKLECKCHGVAGSCTTKTCWTTLPQFRELGYVLKDKYNEAVHVEPVRASRNKRPTFLKIKKPLSYRKPMDTDLVYIEKSPNYCEEDPVTGSVGTQGRACNKTAPQASGCDLMCCGRGYNTHQYARVWQCNCKFHWCCYVKCNTCSERTEMYTCK
modifications: left off: small tags and cut ends

- Reck binding (anti-V5/anti-HA PLA signal) [2]: did not bind Reck
B5: Wnt71-237: smaller NTD variant lacking the linker region (protein)
chain: LGASIICNKIPGLAPRQRAICQSRPDAIIVIGEGSQMGLDECQFQFRNGRWNCSALGERTVFGKELKVGSREAAFTYAIIAAGVAHAITAACTQGNLSDCGCDKEKQGQYHRDEGWKWGGCSADIRYGIGFAKVFVDAREIKQNARTLMNLHNNEAGRKILEENMKLECKCHGVSGSCTTKTCWTTLPQFRELGYVLKDKYNEAVH
modifications: left off: small tags and cut ends
notes: as for B1
